In article PMC10641069, “Intra- and inter-molecular regulation by intrinsically-disordered regions governs PUF protein RNA binding” (Nature Communications, 2023):
Positions count from the first letter of the chain named. In names and notes the source's numbering stands. Several values for one entry are separate records, joined by “and”; a condition that tells them apart may be missing. Identical values can stand only once. Like-named read-outs stand apart in the source and are kept apart here.

How the values were obtained:
[1] = tested on: gld-1 FBEa RNA; assay: Electrophoretic mobility shift assay (EMSA), RNA binding; parameters: species or system C. elegans
Procedure: A 3′-Cy5-labeled synthetic RNA was ordered from IDT (gld-1 FBEa, 5′-[…]-3′). The FBF-2 proteins were serially diluted 2-fold from the highest concentration of 10 µM in the buffer used for gel filtration (20 mM HEPES pH 7.4, 150 mM NaCl, and 0.5 mM TCEP). 10 µl of the serially diluted protein samples were mixed with 10 µl RNA (10 nM) in a 2× buffer of 10 mM HEPES pH 7.4, 0.01% (v/v) Tween 20, 0.1 mg/ml BSA, 0.1 mg/ml yeast tRNA, and 2 mM DTT. For experiments in the presence of LST-1, LST-1 proteins at constant concentration were preincubated with FBF-2 at 4 °C for 2 h. The LST-1 concentrations were chosen based on their Kd’s for interaction with FBF-2. The final FBF-2 concentrations ranged from 5000 nM to 0.6 nM, and the LST-1 A or B concentrations were constant at 150 μM or 50 μM, respectively. The protein-RNA mixtures were incubated at 4 °C overnight. The samples were resolved on 10% TBE polyacrylamide gels run at constant voltage (100 V) with 1× TBE buffer at room temperature for 35 min. The gels were scanned and visualized with a Typhoon FLA 9500 imager using the Cy5 channel (excitation wavelength 635 nm). Band intensities were quantified with ImageQuant 5.2 (Cytiva). The data were fit with GraphPad Prism (version 9.2.0) using nonlinear regression with a one-site specific binding model. Mean Kd’s and standard error of the mean (SEM) from three or more technical replicates are reported (Supplementary Table 4). Full scan images for the replicates shown in the main figures and gel images for all replicates are included in a source data file.

[2] = Melting temperature of FBF-2 proteins; format: physicochemical; conditions: for thermal stability: in words, vs RBD alone or vs RBD + CT
Procedure: Mutants of FBF-2 RBD + CT: Y479A (5′-[…]), L610A (5′-[…]), and Loop6A (E592A, D594A, E597A, E599A, E604A, E605A; 5′-[…]) were generated by site-directed mutagenesis with the primers indicated. Plasmid sequences were verified by DNA sequencing (Azenta Life Sciences). Protein variants were expressed and purified like wild type proteins. Melting temperatures of wild type and mutant proteins were assessed by differential scanning […]. Reaction mixtures (total volume of 20 μl) contained ~0.3 mg/ml FBF-2 proteins and Sypro Orange dye (1:1000 dilution) (Sigma). Fluorescent intensity was collected from 25 °C to 95 °C (3 °C increment/min) with a real time PCR instrument (Applied Biosystems™ QuantStudio 7 Flex System) using excitation and emission wavelengths of 470 nm and 586 nm, respectively. Protein Thermal Shift^TM software (Applied Biosystems, version 1.4) was used to analyze protein melting curves and calculate melting temperatures (Tm).

[3] = tested on: gld-1 FBEa RNA; assay: Surface plasmon resonance, RNA-binding kinetics; parameters: species or system C. elegans
Procedure: Kinetics of FBF-2 binding to the gld-1 FBEa RNA were measured using a 2-channel OpenSPR instrument (Nicoya). A 3′-biotin-labeled synthetic RNA was ordered from Horizon Discovery (gld-1 FBEa, 5′-AUCAUGUGCCAUACA-biotin-3′). The 3′-biotinylated RNA was immobilized on streptavidin-treated biotin sensor chips (Nicoya). All experiments were performed at 20 °C with a buffer of 20 mM HEPES, pH 7.4, 150 mM NaCl, and 2 mM DTT. SPR data were collected using OpenSPR (Nicoya, version 4.3). FBF-2 proteins were injected with a flow rate of 20 µl/min. Data were obtained at five different protein concentrations (25, 50, 100, 200, and 400 nM for wild type RBD + CT; 12.5, 25, 50, 100, and 200 nM for RBD + CT mutants and wild type RBD). Sensor chips were regenerated using 0.05% or 0.1% (v/v) SDS. For each experiment, five binding curves were simultaneously fit using a 1:1 binding model with the TraceDrawer software (Ridgeview Instruments, version 1.9.1). Mean values and standard deviation were calculated from two technical replicates. Despite our efforts, the fit of the binding curves for the association phase of FBF-2 RBD and FBF-2 RBD + CT mutants is poorer than the fit for FBF-2 RBD + CT WT. The appearance of the curves is consistent with the derived kon and koff values, and importantly, the curve fit for the dissociation phase is better.

[4] = no LST-1, mean ± SEM of independent technical replicates (n = 3-5), 4 °C overnight, pH 7.4, Cy5-RNA 5′-AUCAUGUGCCAUAC-3′
[5] = mean ± SD, three technical replicates, ~0.3 mg/ml protein, Sypro Orange, 25 to 95 °C, fluorescence
[6] = derived from on/off rates, mean ± SD, two technical replicates
[7] = mean ± SD, two technical replicates, 20 °C, pH 7.4, 1:1 model

B1: FBF-2 RBD + CT: C. elegans FBF-2 RBD plus C-terminal tail, residues 164-632 (protein)
chain: SNNVLPTWSLDSNGEMRSRLSLSEVLDSGDLMKFAVDKTGCQFLEKAVKGSLTSYQKFQLFEQVIGRKDDFLKLSTNIFGNYLVQSVIGISLATNDDGYTKRQEKLKNFISSQMTDMCLDKFACRVIQSSLQNMDLSLACKLVQALPRDARLIAICVDQNANHVIQKVVAVIPLKNWEFIVDFVATPEHLRQICSDKYGCRVVQTIIEKLTADSMNVDLTSAAQNLRERALQRLMTSVTNRCQELATNEYANYIIQHIVSNDDLAVYRECIIEKCLMRNLLSLSQEKFASHVVEKAFLHAPLELLAEMMDEIFDGYIPHPDTGKDALDIMMFHQFGNYVVQCMLTICCDAVSGRRQTKEGGYDHAISFQDWLKKLHSRVTKERHRLSRFSSGKKMIETLANLRSTHPIYELQSSGHDSFKTDYFSTASEHDGPELEKNGIEEGSLMLEPRSNKSSVSVKFSSSGSHGDD
modifications: left off: His6-SUMO, N-terminal, cleaved
fold weaker RNA-binding affinity ([1]; RBD + CT vs RBD alone): ~5 fold | Kd [1, 4]: 334 nM | Kd ([1]; no LST-1, replicate 1): 294 nM | Kd ([1]; no LST-1, replicate 2): 394 nM | Kd ([1]; no LST-1, replicate 3): 379 nM | Kd ([1]; no LST-1, replicate 4): 270 nM | Kd ([1]; pH 7.4): 114 nM and 68 nM | Kd ([1]; with 150 μM LST-1 A, replicate 1): 111 nM | Kd ([1]; with 150 μM LST-1 A, replicate 2): 106 nM | thermal stability [2]: increased thermal stability compared to the RBD alone | Tm [2, 5]: 40.24 ± 0.12 °C | Tm ([2]; replicate 1): 40.06 °C | Tm ([2]; replicate 2): 40.48 °C | Tm ([2]; replicate 3): 40.20 °C | fold faster off rate ([3]; RBD + CT vs RBD): ~ 5 fold | Kd [3, 6]: 65.1 ± 21.1 nM | koff [3, 7]: 0.00442 s⁻¹ | kon [3, 7]: 71000 M⁻¹ s⁻¹ | Kd ([3]; replicate 1): 80 nM | kon ([3]; replicate 1): 58700 M⁻¹ s⁻¹ | koff ([3]; replicate 1, read-out: koff): 0.00469 s⁻¹ | Kd ([3]; replicate 2): 50 nM | kon ([3]; replicate 2): 82500 M⁻¹ s⁻¹ | koff ([3]; replicate 2, read-out: koff): 0.00414 s⁻¹

B2: FBF-2 RBD + CT Loop6A: FBF-2 RBD + CT with E592A, D594A, E597A, E599A, E604A, E605A (protein)
chain: B1 chain with E429A, D431A, E434A, E436A, E441A, E442A
modifications: left off: His6-SUMO, N-terminal, cleaved
notes: FBF-2 RBD + CT with E592A, D594A, E597A, E599A, E604A, E605A
Kd [1]: 142 nM and 175 nM and 180 nM | Kd [1, 4]: 101 nM | Kd ([1]; no LST-1, replicate 1): 122 nM | Kd ([1]; no LST-1, replicate 2): 100 nM | Kd ([1]; no LST-1, replicate 3): 81 nM | Kd ([1]; pH 7.4): 166 ± 21 nM | thermal stability [2]: only modestly decreased the thermal stability | Tm [2, 5]: 37.58 ± 0.05 °C | Tm ([2]; replicate 1): 37.54 °C | Tm ([2]; replicate 2): 37.68 °C | Tm ([2]; replicate 3): 37.54 °C | Kd [3, 6]: 9.5 ± 4.2 nM | koff [3, 7]: 0.94 ± 0.05 x10^-3 s^-1 | kon [3, 7]: 10.9 ± 4.3 x10^4 M^-1 s^-1 | kon ([3]; replicate 1): 78000 M⁻¹ s⁻¹ | koff ([3]; replicate 1, read-out: koff): 0.00097 s⁻¹ | kon ([3]; replicate 2): 139000 M⁻¹ s⁻¹ | koff ([3]; replicate 2, read-out: koff): 0.00091 s⁻¹

B3: FBF-2 RBD + CT L610A: FBF-2 RBD + CT mutated in the C-terminal tail (L610A) (protein)
chain: B1 chain with L447A
modifications: left off: His6-SUMO, N-terminal, cleaved
Kd [1]: 61 nM and 93 nM and 91 nM | Kd [1, 4]: 51 nM | Kd ([1]; no LST-1, replicate 1): 38 nM | Kd ([1]; no LST-1, replicate 2): 32 nM | Kd ([1]; no LST-1, replicate 3): 66 nM | Kd ([1]; no LST-1, replicate 4): 30 nM | Kd ([1]; no LST-1, replicate 5): 89 nM | Kd ([1]; pH 7.4): 82 ± 18 nM | thermal stability [2]: melting temperature of the mutated protein near that of the RBD alone | Tm [2, 5]: 35.63 ± 0.05 °C | Tm ([2]; replicate 1): 35.72 °C | Tm ([2]; replicate 2): 35.58 °C | Tm ([2]; replicate 3): 35.58 °C | Kd [3, 6]: 9.4 ± 3.6 nM | koff [3, 7]: 1.36 ± 0.11 x10^-3 s^-1 | kon [3, 7]: 15.5 ± 4.7 x10^4 M^-1 s^-1 | Kd ([3]; replicate 1): 11.9 nM | kon ([3]; replicate 1): 121000 M⁻¹ s⁻¹ | koff ([3]; replicate 1, read-out: koff): 0.00144 s⁻¹ | Kd ([3]; replicate 2): 6.8 nM | kon ([3]; replicate 2): 188000 M⁻¹ s⁻¹ | koff ([3]; replicate 2, read-out: koff): 0.00128 s⁻¹

B4: FBF-2 RBD: FBF-2 RNA-binding domain, residues 164-575, lacking the C-terminal tail (protein)
chain: SNNVLPTWSLDSNGEMRSRLSLSEVLDSGDLMKFAVDKTGCQFLEKAVKGSLTSYQKFQLFEQVIGRKDDFLKLSTNIFGNYLVQSVIGISLATNDDGYTKRQEKLKNFISSQMTDMCLDKFACRVIQSSLQNMDLSLACKLVQALPRDARLIAICVDQNANHVIQKVVAVIPLKNWEFIVDFVATPEHLRQICSDKYGCRVVQTIIEKLTADSMNVDLTSAAQNLRERALQRLMTSVTNRCQELATNEYANYIIQHIVSNDDLAVYRECIIEKCLMRNLLSLSQEKFASHVVEKAFLHAPLELLAEMMDEIFDGYIPHPDTGKDALDIMMFHQFGNYVVQCMLTICCDAVSGRRQTKEGGYDHAISFQDWLKKLHSRVTKERHRLSRFSSGKKMIETLANLRSTHPIYELQ
modifications: left off: His6-SUMO, N-terminal, cleaved
Kd ([1]; in the presence of 50 μM LST-1 B, mean ± SEM, n = 3, 4 °C overnight, pH 7.4): 176 nM | Kd [1, 4]: 70 nM | Kd ([1]; no LST-1, replicate 1): 75 nM | Kd ([1]; no LST-1, replicate 2): 62 nM | Kd ([1]; no LST-1, replicate 3): 98 nM | Kd ([1]; no LST-1, replicate 4): 44 nM | Kd ([1]; with 50 μM LST-1 B, replicate 1): 148 nM | Kd ([1]; with 50 μM LST-1 B, replicate 2): 180 nM | Kd ([1]; with 50 μM LST-1 B, replicate 3): 201 nM | Tm [2, 5]: 36.32 ± 0.05 °C | Tm ([2]; replicate 1): 36.42 °C | Tm ([2]; replicate 2): 36.28 °C | Tm ([2]; replicate 3): 36.28 °C | Kd [3, 6]: 6.6 ± 2.3 nM | koff [3, 7]: 0.00086 s⁻¹ | kon [3, 7]: 136000 M⁻¹ s⁻¹ | Kd ([3]; replicate 1): 8.2 nM | kon ([3]; replicate 1): 120000 M⁻¹ s⁻¹ | koff ([3]; replicate 1, read-out: koff): 0.000979 s⁻¹ | Kd ([3]; replicate 2): 5 nM | kon ([3]; replicate 2): 151000 M⁻¹ s⁻¹ | koff ([3]; replicate 2, read-out: koff): 0.00075 s⁻¹
